Experimental data from the MegaScale stability set (Tsuboyama et al. 2023).

B1: HEEH_KT_rd6_0007 (parent)
chain: SIEEEIKKAEEAKEKGKTFIHGDFVATTEELLDELLKRLRKKL

Variants of: B1
Experiment: folding stability dG (cDNA display proteolysis); higher = more stable
Conditions: PBS, room temperature

Folding stability dG [kcal/mol], by site and new letter:
K8: Q 1.22 | I 0.785 | S 0.904 | W 1.02 | F 0.758 | P 0.542 | Y 0.777 | R 1.42 | E 0.75 | N 0.961 | L 1.23 | G 0.922 | D 0.721 | T 0.724 | A 1.21 | H 0.921 | M 1.26 | V 0.672
H21: W 1.78 | I 1.03 | R 0.838 | S 1.39 | N 0.77 | M 1.08 | T 0.971 | Y 1.76 | V 1.04 | Q 1.03 | F 1.52 | G 0.81 | K 0.812 | P 0.759 | D 0.707 | A 0.946 | E 0.742 | L 1.29
A9: N 0.608 | Q 0.596 | M 0.926 | I 1.5 | H 0.516 | Y 0.662 | D 0.579 | G 0.708 | L 1.44 | F 0.698 | R 0.739 | E 0.511 | V 1.68 | C 1.78 | T 0.679 | S 0.634 | K 0.705 | P 0.556 | W 0.879
F19: A 0.757 | H 0.937 | P 0.637 | N 0.745 | L 0.751 | W 0.964 | Y 1.49 | I 0.902 | E 0.58 | Q 0.715 | S 0.618 | R 0.752 | T 0.77 | K 0.811 | M 0.895 | D 0.713 | V 0.861 | G 0.793
K15: Q 1.4 | I 0.793 | V 0.735 | G 1.08 | M 1.37 | L 1.4 | H 1.3 | Y 1.13 | E 0.916 | N 1.32 | P 0.667 | A 1.33 | S 1.19 | R 1.19 | D 0.807 | W 1.07 | T 1.29 | F 1.15
K7: S 0.891 | D 0.626 | P 0.656 | A 1.31 | I 1.01 | G 0.824 | E 0.935 | W 0.964 | V 0.878 | Q 1.25 | M 1.16 | L 1.14 | R 1.6 | C 1.38 | N 0.942 | Y 0.923 | H 1.06 | T 0.994 | F 0.95
K13: T 0.5 | A 0.86 | V 0.79 | I 0.852 | Y 1.07 | W 1.09 | L 1.16 | M 1.01 | Q 0.869 | P 0.543 | D 0.676 | F 0.912 | S 0.704 | E 0.58 | G 0.684 | N 0.575 | R 1.3 | H 0.747 | C 1.82
G16: Q 0.935 | Y 1.12 | A 0.667 | M 0.701 | R 0.873 | V 0.73 | F 1.2 | S 0.957 | K 1.3 | H 1.25 | T 0.757 | D 0.785 | E 0.895 | L 1.22 | W 1.3 | P 0.298 | I 1.03 | N 1.08
D23: E 1.16 | Q 1.14 | L 1.31 | S 1.36 | K 1.06 | M 1.26 | G 1.16 | Y 1.3 | H 1.02 | R 0.773 | F 1.48 | C 1.91 | P 0.958 | W 1.64 | V 1.38 | I 1.52 | A 1.26 | T 1.36 | N 1.4
G22: Y 1.23
